Laboratory results from patent US20110269227A1 (SHARP, published 2011).
Ends that are not written are not given here. * marks the point of attachment. Biotin = O=C1N[C@H]2[C@H](CS[C@H]2CCCCC(=O)*)N1; PEG (amino-terminated) = not defined here; cellulose membrane = not defined here

Experiments:
[1] = molecular target: T1, human adiponectin (R&D Systems) (human, UniProt Q15848 19-244); test: peptide spot on cellulose membrane, sandwich enzyme immunoassay with HRP-tagged anti-adiponectin antibody, fluorescence
T1 construct: Bought protein; also called ACRP30; GBP28
T1 sequence (looked up): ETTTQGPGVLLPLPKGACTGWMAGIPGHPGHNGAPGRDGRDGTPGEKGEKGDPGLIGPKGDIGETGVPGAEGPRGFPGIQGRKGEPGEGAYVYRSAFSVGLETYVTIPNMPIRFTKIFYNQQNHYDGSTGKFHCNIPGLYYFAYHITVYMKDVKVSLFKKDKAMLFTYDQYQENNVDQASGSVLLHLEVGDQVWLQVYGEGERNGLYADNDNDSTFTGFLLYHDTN
Protocol: First, a cellulose membrane was soaked in ethanol. Then, the cellulose membrane was continuously washed with phosphate buffered saline (PBS) (pH 7.4) so that ethanol contained in the cellulose membrane was replaced with PBS. In order that nonspecific binding is inhibited, the cellulose membrane was incubated overnight in a blocking solution (PBS containing 1% milk powder).
Then, the cellulose membrane was incubated for 1 hour in a blocking solution (PBS containing 1% milk powder) which contains 0.25 μg/mL human adiponectin (R&D Systems). Then, the cellulose membrane was washed with PBST (PBS containing 0.1% (v/v) Tween 20). Then, the cellulose membrane was incubated for 1 hour in a blocking solution containing […] anti-human adiponectin antibody (R&D Systems) which is tagged with HRP, and then washed with PBST five times.
After that, 100 μM fluorescent substrate (Amplex Red (Invitrogen)) containing 1 mM hydrogen peroxide was added to the cellulose membrane, and then they react with each other for 10 minutes. A fluorescent intensity in a synthesis spot was measured in such a manner that an […] wavelength of 595 nm of fluorescence from the fluorescent substrate was measured by a fluorescence imager (GE Healthcare) by exciting, with light of 540 nm, the fluorescent substrate in the synthesis spot. A bond strength of the peptide was worked out from the fluorescent intensity in the synthesis spot.

[2] = molecular target: T1, human adiponectin (R&D Systems); test: adiponectin coated on microplate, 1 mM biotin-tagged peptide, HRP-streptavidin, TMB absorbance at 450 nm
Protocol: 5 μg/mL adiponectin (R&D Systems) prepared with PBS was dispensed to wells of a 96-well microplate in an amount of 100 μL per well. Then, the peptides were incubated for 1 hour at 37° C. Adiponectin was thus immobilized in the wells. In order to inhibit nonspecific binding, a blocking solution (Protein-Free Blocking Buffer, PIERCE) was then added to the wells in an amount of 300 μL per well. Then, the peptides were incubated for 2 hours at room temperature. Then, the wells were washed three times with PBST (PBS containing 0.1% (v/v) Tween 20). Then, 1 mM biotin-tagged peptide was added to the wells in an amount of 100 μL per well. Then, the peptides were incubated for 1 hour at room temperature. Then, the wells were washed with PBST again.
Then, HRP-tagged streptavidin (R&D Systems) diluted with 200 parts of the blocking solution (Protein-Free Blocking Buffer, PIERCE) was added to the well in an amount of 100 μL per well. Then, the streptavidin was incubated for 1 hour at room temperature. Then, the wells were washed with PBST. Then, TMB (tetramethylbenzidine) was added to the wells in an amount of 100 μL per well so that they react with each other for 20 minutes. Then, the reaction was stopped by adding 1 M of HCL to the wells in an amount of 100 μL per well. Then, an absorbance at 450 nm was measured by use of a microplate reader (Bio-Rad).

Row | Binder | binding result [1] | binding result [2]
1 | VRVLTLPL-{PEG (amino-terminated)-cellulose membrane} (reading uncertain, Spot-synthesised on a cellulose membrane) [peptide consisting of the amino-acid sequence represented by SEQ ID NO: 1] | binds | 
2 | RQTRAGVF-{PEG (amino-terminated)-cellulose membrane} (reading uncertain, Spot-synthesised on a cellulose membrane) [peptide consisting of the amino-acid sequence represented by SEQ ID NO: 10] | binds | 
3 | MHFTIAEG-{PEG (amino-terminated)-cellulose membrane} (reading uncertain, Spot-synthesised on a cellulose membrane) [peptide consisting of the amino-acid sequence represented by SEQ ID NO: 11] | binds | 
4 | FLGLGLSGVVPT-{PEG (amino-terminated)-cellulose membrane} (reading uncertain, Spot-synthesised on a cellulose membrane) [peptide consisting of the amino-acid sequence represented by SEQ ID NO: 12] | binds | 
5 | GFVKATTV-{PEG (amino-terminated)-cellulose membrane} (reading uncertain, Spot-synthesised on a cellulose membrane) [peptide consisting of the amino-acid sequence represented by SEQ ID NO: 13] | binds | 
6 | ITPIHWVK-{PEG (amino-terminated)-cellulose membrane} (reading uncertain, Spot-synthesised on a cellulose membrane) [peptide consisting of the amino-acid sequence represented by SEQ ID NO: 14] | binds | 
7 | ILLPLRIN-{PEG (amino-terminated)-cellulose membrane} (reading uncertain, Spot-synthesised on a cellulose membrane; also called ILLPLRIN) [peptide consisting of the amino-acid sequence represented by SEQ ID NO: 15] | binds | 
8 | ITPIHWVKK(Biotin) |  | binds
9 | ILLPLRINK(Biotin) |  | binds
10 | MGSFVPW-{PEG (amino-terminated)-cellulose membrane} (reading uncertain, Spot-synthesised on a cellulose membrane; also called MGSFVPW) [peptide consisting of the amino-acid sequence represented by SEQ ID NO: 8] | binds | 
11 | MGSFVPY-{PEG (amino-terminated)-cellulose membrane} (reading uncertain, also called MGSFVPY) [peptide having the amino-acid sequence represented by SEQ ID NO: 18] | binds | 
12 | RFATPKHR-{PEG (amino-terminated)-cellulose membrane} (reading uncertain, Spot-synthesised on a cellulose membrane) [peptide consisting of the amino-acid sequence represented by SEQ ID NO: 9] | binds | 
13 | KFATPKHR [peptide having the amino-acid sequence represented by SEQ ID NO: 19] | binds | 
14 | LTLPLQAHHAME-{PEG (amino-terminated)-cellulose membrane} (reading uncertain, Spot-synthesised on a cellulose membrane) [peptide consisting of the amino-acid sequence represented by SEQ ID NO: 2] | binds | 
15 | LLHGHRPPMP-{PEG (amino-terminated)-cellulose membrane} (reading uncertain, Spot-synthesised on a cellulose membrane) [peptide consisting of the amino-acid sequence represented by SEQ ID NO: 3] | binds | 
16 | FRIHTETG-{PEG (amino-terminated)-cellulose membrane} (reading uncertain, Spot-synthesised on a cellulose membrane) [peptide consisting of the amino-acid sequence represented by SEQ ID NO: 4] | binds | 
17 | ILTMLRPNMYF-{PEG (amino-terminated)-cellulose membrane} (reading uncertain, Spot-synthesised on a cellulose membrane) [peptide consisting of the amino-acid sequence represented by SEQ ID NO: 5] | binds | 
18 | APLQEKVVFG-{PEG (amino-terminated)-cellulose membrane} (reading uncertain, Spot-synthesised on a cellulose membrane) [peptide consisting of the amino-acid sequence represented by SEQ ID NO: 6] | binds | 
19 | IALLIMGS-{PEG (amino-terminated)-cellulose membrane} (reading uncertain, Spot-synthesised on a cellulose membrane) [peptide consisting of the amino-acid sequence represented by SEQ ID NO: 7] | binds | 
